# Data: patent publication US10918733B2, “Lipopeptide- and lipoprotein-conjugates and its use” (HELMHOLTZ-ZENTRUM FUER INFEKTIONSFORSCHUNG GMBH, priority 2009, dated 2021)
# Assays:
# [1] = test system: Ova-specific CD8+ T cells; assay: Proliferation of CFSE-stained T cells co-cultured with treated DC: CD8+ T cells; type: cell-based, OT1-tg mice; conditions: DC incubated with 10 μg/mL for 24 h, co-culture 4 days
# Procedure: T cell-mediated immune responses were investigated 96 h by measuring the proliferation of cells recovered from spleens after restimulation with BPPcysOva^mPEG. Non-Ag restimulated spleen cells were chosen as negative controls (FIG. 3). […] Taking into consideration that the BPPcysOva^mPEG has a promising effect on DC activation and maturation, next the capacity of these APC to stimulate the proliferation of antigen-specific CD8+ and CD4+ T cells was evaluated. Concentrations below 10^−8 M of BPPcysOva^mPEG were still able to induce an antigen specific proliferation of CD4+ T cells shown by the reduction of CFSE+ cells (FIGS. 4A-E).
# FIG. 4: Proliferation of CD8+, CD4+ and regulatory T cells. DC were generated from bone marrow of C57BL/6 mice and incubated with 10 μg/mL of B) Ova C) Ova peptides, D) Ova in the presence of BPPcysMPEG and E) BPPcysOva^mPEG alone (A) Control) for 24 h. The following day, CD4+ T cells from spleens of OT2-tg animals or CD8+ T cells of OT1-tg animals were isolated. After staining with CFSE, CD8+, CD4+ T cells were co-cultured with adjuvant-treated DCs for 4 days. The decrease of CFSE-FITC expression due to cell division of CD8+ or CD4+ T cells were analysed by flow cytometric analysis. One representative experiment out of two is shown.
# [2] = test system: Ova-specific IgG1 antibodies; assay: Serum Ova-specific antibody titers after immunization (ELISA); type: in vivo, C57BL6 mice; conditions: i.n.; by the end of the immunization protocol
# Procedure: (§1) Experimental protocol 1: six-eight weeks-old female C57BL6 mice were purchased from Harlan Winkelmann GmbH (Borchen, Germany) and treated in accordance with local and European Community guidelines. Groups of 5 mice each were immunized on day 1, 14 and 28 with 30 μg of Ova (Sigma Chemie, Deisenhofen, Germany) or LPS-free Ova (EndoGrade Ovalbumin, Hyglos GmbH) alone, co-administered with 5 μg of BPPcysMPEG or with 5 to 10 μg of synthetic BPPcysOva^mPEG alone. For intranasal (i.n.) immunization, 10 μl were applied to each naris, whereas for the s.c. the compounds were resuspended in 50 μl of PBS per dose. Serum samples were collected at different time points (day 0, 13, 27 and 38) after immunization and stored at −20° C. prior to determination of Ova-specific antibodies. 96-well Nunc-Immuno MaxiSorp assay plates (Nunc, Roskilde, Denmark) were coated with 100 μl of Ova (Sigma Chemie, Deisenhofen, Germany) at 5 μg/ml in 0.05 M carbonate buffer (pH 8.2) per well. […] Endpoint titers were expressed as the reciprocal log2 of the last dilution, which gave an optical density at 405 nm of 0.1 units above the values of the negative controls after 15 to 30 min of incubation. […]
# FIG. 5: Humoral responses stimulated following vaccination using BPPcysOva^mPEG. […] At day 38 post primary immunisation, serum samples were collected and the IgG 1 and IgG2c titres of Ova-specific antibodies were determined by ELISA. […]
# [3] = Tolerability during the immunization period; type: in vivo, C57BL6 mice; conditions: i.n. or s.c. immunization
# Procedure: as §1, with “well. Serial two-fold dilutions of sera or lavages in PBS with 1% BSA and 0.05% Tween 20 were added (100 μl/well), and plates incubated for 2 h at 37° C.” for “well.”
molecule,measurement,setting,value
"Ova: model antigen ovalbumin (Sigma Chemie) (protein, UniProt P01012 2-386, looked up) Ovalbumin: GSIGAASMEFCFDVFKELKVHHANENIFYCPIAIMSALAMVYLGAKDSTRTQINKVVRFDKLPGFGDSIEAQCGTSVNVHSSLRDILNQITKPNDVYSFSLASRLYAEERYPILPEYLQCVKELYRGGLEPINFQTAADQARELINSWVESQTNGIIRNVLQPSSVDSQTAMVLVNAIVFKGLWEKAFKDEDTQAMPFRVTEQESKPVQMMYQIGLFRVASMASEKMKILELPFASGTMSMLVLLPDEVSGLEQLESIINFEKLTEWTSSNVMEERKIKVYLPRMKMEEKYNLTSVLMAMGITDVFSSSANLSGISSAESLKISQAVHAAHAEINEAGREVVGSAEAGVDAASVSEEFRADHPFLFCIKHIATNAVLFFGRCVSP",stimulation of proliferation of Ova-specific CD8+ T cells by treated DC,[1],very efficiently
same,Ova-specific IgG1 endpoint titer in serum,[2],≤ 10^6
same,adverse effect during the immunization period,[3],no adverse effect
